# Measured values taken from IntAct's records for PubMed 21960005.
# B1: Ran-binding protein 3 (Homo sapiens), Q9H6Z4 (parent)
# chain: MADLANEEKPAIAPPVFVFQKDKGQKSPAEQKNLSDSGEEPRGEAEAPHHGTGHPESAGEHALEPPAPAGASASTPPPPAPEAQLPPFPRELAGRSAGGSSPEGGEDSDREDGNYCPPVKRERTSSLTQFPPSQSEERSSGFRLKPPTLIHGQAPSAGLPSQKPKEQQRSVLRPAVLQAPQPKALSQTVPSSGTNGVSLPADCTGAVPAASPDTAAWRSPSEAADEVCALEEKEPQKNESSNASEEEACEKKDPATQQAFVFGQNLRDRVKLINESVDEADMENAGHPSADTPTATNYFLQYISSSLENSTNSADASSNKFVFGQNMSERVLSPPKLNEVSSDANRENAAAESGSESSSQEATPEKESLAESAAAYTKATARKCLLEKVEVITGEEAESNVLQMQCKLFVFDKTSQSWVERGRGLLRLNDMASTDDGTLQSRLVMRTQGSLRLILNTKLWAQMQIDKASEKSIRITAMDTEDQGVKVFLISASSKDTGQLYAALHHRILALRSRVEQEQEAKMPAPEPGAAPSNEEDDSDDDDVLAPSGATAAGAGDEGDGQTTGST
# partner: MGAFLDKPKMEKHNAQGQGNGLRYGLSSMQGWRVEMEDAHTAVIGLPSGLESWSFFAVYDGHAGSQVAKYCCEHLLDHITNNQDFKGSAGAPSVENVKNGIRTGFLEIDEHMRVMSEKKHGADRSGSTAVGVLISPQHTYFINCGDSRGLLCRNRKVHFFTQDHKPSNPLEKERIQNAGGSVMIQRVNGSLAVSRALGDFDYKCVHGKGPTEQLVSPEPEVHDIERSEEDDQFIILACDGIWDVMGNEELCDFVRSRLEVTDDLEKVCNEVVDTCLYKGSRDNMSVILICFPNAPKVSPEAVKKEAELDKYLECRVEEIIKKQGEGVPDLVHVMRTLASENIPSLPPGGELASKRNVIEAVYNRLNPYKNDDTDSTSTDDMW
# B2: Ran-binding protein 3 (Homo sapiens), Q9H6Z4 (parent)
# chain: B1 chain
# Variants of: B1
# Details: with ppm1a_human PPM1A
row,Variant,effect of a mutation on the interaction
1,MADLANEEKPAIAPPVFVFQKDKGQKSPAEQKNLSDSGEEPRGEAEAPHHGTGHPEAAGEHALEPPAPAGASASTPPPPAPEAQLPPFPRELAGRSAGGSSPEGGEDSDREDGNYCPPVKRERTSSLTQFPPSQSEERSSGFRLKPPTLIHGQAPSAGLPSQKPKEQQRSVLRPAVLQAPQPKALSQTVPSSGTNGVSLPADCTGAVPAASPDTAAWRSPSEAADEVCALEEKEPQKNESSNASEEEACEKKDPATQQAFVFGQNLRDRVKLINESVDEADMENAGHPSADTPTATNYFLQYISSSLENSTNSADASSNKFVFGQNMSERVLSPPKLNEVSSDANRENAAAESGSESSSQEATPEKESLAESAAAYTKATARKCLLEKVEVITGEEAESNVLQMQCKLFVFDKTSQSWVERGRGLLRLNDMASTDDGTLQSRLVMRTQGSLRLILNTKLWAQMQIDKASEKSIRITAMDTEDQGVKVFLISASSKDTGQLYAALHHRILALRSRVEQEQEAKMPAPEPGAAPSNEEDDSDDDDVLAPSGATAAGAGDEGDGQTTGST [S57A],decreasing interaction

# Variants of: B1
# Details: with ppm1a_human PPM1A
# Remark: another data set of the same source
row,Variant,effect of a mutation on the interaction
1,MADLANEEKPAIAPPVFVFQKDKGQKSPAEQKNLSDSGEEPRGEAEAPHHGTGHPEDAGEHALEPPAPAGASASTPPPPAPEAQLPPFPRELAGRSAGGSSPEGGEDSDREDGNYCPPVKRERTSSLTQFPPSQSEERSSGFRLKPPTLIHGQAPSAGLPSQKPKEQQRSVLRPAVLQAPQPKALSQTVPSSGTNGVSLPADCTGAVPAASPDTAAWRSPSEAADEVCALEEKEPQKNESSNASEEEACEKKDPATQQAFVFGQNLRDRVKLINESVDEADMENAGHPSADTPTATNYFLQYISSSLENSTNSADASSNKFVFGQNMSERVLSPPKLNEVSSDANRENAAAESGSESSSQEATPEKESLAESAAAYTKATARKCLLEKVEVITGEEAESNVLQMQCKLFVFDKTSQSWVERGRGLLRLNDMASTDDGTLQSRLVMRTQGSLRLILNTKLWAQMQIDKASEKSIRITAMDTEDQGVKVFLISASSKDTGQLYAALHHRILALRSRVEQEQEAKMPAPEPGAAPSNEEDDSDDDDVLAPSGATAAGAGDEGDGQTTGST [S57D],increasing interaction

# Variants of: B2
# Details: with smad2_human SMAD2, Q15796
# smad2_human SMAD2, Q15796, sequence (Q15796 whole entry): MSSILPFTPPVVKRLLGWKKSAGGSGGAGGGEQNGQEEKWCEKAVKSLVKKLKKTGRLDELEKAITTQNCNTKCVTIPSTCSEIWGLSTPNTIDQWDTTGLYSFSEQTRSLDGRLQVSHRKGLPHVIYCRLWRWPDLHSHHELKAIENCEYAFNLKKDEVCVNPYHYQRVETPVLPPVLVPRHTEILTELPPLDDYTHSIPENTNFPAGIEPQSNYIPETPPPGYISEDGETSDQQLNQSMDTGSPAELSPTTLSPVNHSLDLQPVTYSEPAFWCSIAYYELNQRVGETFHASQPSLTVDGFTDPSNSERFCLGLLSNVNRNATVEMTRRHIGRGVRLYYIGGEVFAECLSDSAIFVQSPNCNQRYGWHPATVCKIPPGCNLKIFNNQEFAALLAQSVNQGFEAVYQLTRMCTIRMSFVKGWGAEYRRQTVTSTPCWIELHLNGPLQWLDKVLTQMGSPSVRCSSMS
row,Variant,effect of a mutation on the interaction
1,MADLANEEKPAIAPPVFVFQKDKGQKSPAEQKNLSDSGEEPRGEAEAPHHGTGHPEDAGEHALEPPAPAGASASTPPPPAPEAQLPPFPRELAGRSAGGSSPEGGEDSDREDGNYCPPVKRERTSSLTQFPPSQSEERSSGFRLKPPTLIHGQAPSAGLPSQKPKEQQRSVLRPAVLQAPQPKALSQTVPSSGTNGVSLPADCTGAVPAASPDTAAWRSPSEAADEVCALEEKEPQKNESSNASEEEACEKKDPATQQAFVFGQNLRDRVKLINESVDEADMENAGHPSADTPTATNYFLQYISSSLENSTNSADASSNKFVFGQNMSERVLSPPKLNEVSSDANRENAAAESGSESSSQEATPEKESLAESAAAYTKATARKCLLEKVEVITGEEAESNVLQMQCKLFVFDKTSQSWVERGRGLLRLNDMASTDDGTLQSRLVMRTQGSLRLILNTKLWAQMQIDKASEKSIRITAMDTEDQGVKVFLISASSKDTGQLYAALHHRILALRSRVEQEQEAKMPAPEPGAAPSNEEDDSDDDDVLAPSGATAAGAGDEGDGQTTGST [S57D],decreasing interaction
